# From patent publication US20190389941A1 (GLIKNIK, published 2019)
# B1: FcγRIIa (receptor, UniProt P12318 34-217, looked up)
# chain: QAAAPPKAVLKLEPPWINVLQEDSVTLTCQGARSPESDSIQWFHNGNLIPTHTQPSYRFKANNNDSGEYTCQTGQTSLSDPVHLTVLSEWLVLQTPHLEFQEGETIMLRCHSWKDKPLVKVTFFQNGKSQKFSHLDPTFSIPQANHSHSGDYHCTGNIGYTLFSSKPVTITVQVPSMGSSSPMG
# notes: also called His-tagged receptor protein; CD32; not shown: His tag
# B2: FcγRIIb (receptor, UniProt P31994 43-217, looked up)
# chain: TPAAPPKAVLKLEPQWINVLQEDSVTLTCRGTHSPESDSIQWFHNGNLIPTHTQPSYRFKANNNDSGEYTCQTGQTSLSDPVHLTVLSEWLVLQTPHLEFQEGETIVLRCHSWKDKPLVKVTFFQNGKSKKFSRSDPNFSIPQANHSHSGDYHCTGNIGYTLYSSKPVTITVQAP
# notes: as for B1
# Target: T1, G990 (Homo sapiens (Human), UniProt P0DOX5 218-449 = IgG part)
# T1 construct: GL-2045 background (IgG1 hinge-CH2-CH3-IgG2 hinge) with G236R; homodimeric unit that multimerizes; also called stradomer G990
# Experiment: BLI (ForteBio Octet), His-tagged receptor on sensor tip; summary grade
# Procedure: Binding of general stradomers or parent stradomer GL-2045 to FcγRI, FcγRIIb, FcγRIIIa, FcγRIIa, was assessed. RU values of dissociation were measured by biolayer interferometry using a ForteBio Octet instrument. His-tagged receptor proteins were bound to the sensor tip in 1X kinetic analysis buffer from ForteBio after which the on rate of the receptor/protein was measured by transferring the sensor tip to a 1x kinetics buffer containing the purified stradomer of choice. Off rate was measured by transferring the sensor tip to a 1X kinetics buffer, and RU value was calculated from the measured maximum binding using the ForteBio software. Biolayer interferometry detects the binding between a ligand immobilized on the biosensor tip surface and an analyte in solution. When binding occurs it produces an increase in optical thickness at the biosensor tip, which results in a wavelength shift (detected as a response unit of “RU”). The maximum binding level (RU max) is the maximum possible amount of sample binding at equilibrium that saturates the amount of ligand on the sensor surface. The RU 300 is the residual sample binding after 300 seconds of dissociation and is useful to characterize the rate of dissociation of the test article from the test ligand.
row,Binder,binding result
1,B1,no binding
2,B2,no binding
